From patent US20090112150A1, “CAVITATION ENHANCED TREATMENT THROUGH LOCAL DELIVERY” (IMARX THERAPEUTICS, INC., priority 2004, published 2009)

Test: Loading of thrombolytic drugs into microbubbles, particle sizing/counting on Accusizer 770
Type: physicochemical
Details: MX115 microbubbles
Procedure: MX115 was activated in the vial. Different concentrations of thrombolytic drugs, Streptokinase (Sigma, Milwaukee, Wis.) and t-PA (Genentech, South San Francisco, Calif.), were added to the vial and incubated with the microbubbles for 5 minutes before analyzing the mixtures using a Model 770 Accusizer (Particle Sizing Systems, Santa Barbara, Calif.). […] As much as 5 mg of the drug could be loaded into the MRX 115 microbubbles.

[1] = protein loading in microbubbles 0.010 mg, 5 minutes incubation
[2] = protein loading in microbubbles 0.1 mg, 5 minutes incubation
[3] = protein loading in microbubbles 1 mg, 5 minutes incubation
[4] = protein loading in microbubbles 5 mg, 5 minutes incubation

Row | Substance | Number of particles/mL (After 24 hrs) | Number wt mean (After 24 hrs) | Volume wt mean (After 24 hrs) | Number of particles/mL [1] | Number wt mean [1] | Volume wt mean [1] | Number of particles/mL [2] | Number wt mean [2] | Volume wt mean [2] | Number of particles/mL [3] | Number wt mean [3] | Volume wt mean [3] | Number of particles/mL [4] | Number wt mean [4] | Volume wt mean [4]
1 | Tissue Plasminogen Activator [tPA] | 1.3 × 10^9 particles/mL | 2.20 μ | 24.4 μ | 1.1 × 10^9 particles/mL | 2.27 μ | 23.5 μ | – | – | – | – | – | – | – | – | –
2 | Streptokinase | – | – | – | – | – | – | 1.1 × 10^9 particles/mL | 1.79 μ | 13.6 μ | 1.1 × 10^9 particles/mL | 1.87 μ | 17.1 μ | 0.5 × 10^9 particles/mL | 2.44 μ | 52.9 μ
